The source of these data is patent US20180110770A1, “FERROPTOSIS AND GLUTAMINOLYSIS INHIBITORS AND METHODS OF TREATMENT” (MEMORIAL SLOAN-KETTERING CANCER CENTER, priority 2015, published 2018).

The test relates to bax/bak-DKO MEFs. Description: Death-inducing activity of transferrin and L-Gln under amino acid starvation. It is filed as cell-based, mouse. The note with it: with smFBS, 12 hrs. As for the experimental part:
To induce cell death, 80%-confluent cells were washed with PBS twice, and then cultured in amino acid-free medium, with specific factors added as indicated in individual experiments. Cell death was analyzed by propidium iodide (PI) staining coupled with microscopy or flow cytometry. Alternatively, cell viability was determined using the CellTiter-Glo luminescent Cell Viability Assay (Promega). In assays using WT MEFs, viability was calculated by normalizing ATP levels to cells treated with amino acid-starvation in the presence of 10% (v/v) diFBS, while in assays using bax/bak-DKO MEFs, ATP levels were normalized to cells treated with amino acid and FBS double starvation.

B1: bovine holo-transferrin: commercial iron-bound bovine holo-transferrin (Sigma) (protein, UniProt Q29443 20-704, looked up)
Serotransferrin: DPERTVRWCTISTHEANKCASFRENVLRILESGPFVSCVKKTSHMDCIKAISNNEADAVTLDGGLVYEAGLKPNNLKPVVAEFHGTKDNPQTHYYAVAVVKKDTDFKLNELRGKKSCHTGLGRSAGWNIPMAKLYKELPDPQESIQRAAANFFSASCVPCADQSSFPKLCQLCAGKGTDKCACSNHEPYFGYSGAFKCLMEGAGDVAFVKHSTVFDNLPNPEDRKNYELLCGDNTRKSVDDYQECYLAMVPSHAVVARTVGGKEDVIWELLNHAQEHFGKDKPDNFQLFQSPHGKDLLFKDSADGFLKIPSKMDFELYLGYEYVTALQNLRESKPPDSSKDECMVKWCAIGHQERTKCDRWSGFSGGAIECETAENTEECIAKIMKGEADAMSLDGGYLYIAGKCGLVPVLAENYKTEGESCKNTPEKGYLAVAVVKTSDANINWNNLKDKKSCHTAVDRTAGWNIPMGLLYSKINNCKFDEFFSAGCAPGSPRNSSLCALCIGSEKGTGKECVPNSNERYYGYTGAFRCLVEKGDVAFVKDQTVIQNTDGNNNEAWAKNLKKENFEVLCKDGTRKPVTDAENCHLARGPNHAVVSRKDKATCVEKILNKQQDDFGKSVTDCTSNFCLFQSNSKDLLFRDDTKCLASIAKKTYDSYLGDDYVRAMTNLRQCSTSKLLEACTFHKP
modifications: iron-bound
Turning to B1, the “induction of cell death in the presence of smFBS” value was “induced robust cell death”.

B2: bovine apo-transferrin: iron-free bovine apo-transferrin (protein, UniProt Q29443 20-704, looked up)
Serotransferrin: B1 Serotransferrin
modifications: iron-free
Consider B2, for which the “induction of cell death in the presence of smFBS” value is “does not possess killing activity”.
